# Starred links: 1 amine or outer side, 2 acyl side, 3 side chain; linkers in the order of their positions; H or OH if unused. Positions of bridges follow the written chain, without caps; N, C: chain ends. Non-standard residues stand in square brackets, D forms with d. Primed or numbered codes have the meaning given here. *: point of attachment. E(PEG8Me) = (S)-30-amino-27-oxo-2,5,8,11,14,17,20,23-octaoxa-26-azahentriacontane-31-oic acid, COCCOCCOCCOCCOCCOCCOCCOCCNC(=O)CC[C@H](N[*:1])C(=O)[*:2]; E(PEG4Me) = (S)-18-amino-15-oxo-2,5,8,11-tetraoxa-14-azanonadecane-19-oic acid, COCCOCCOCCOCCNC(=O)CC[C@H](N[*:1])C(=O)[*:2]; Phe(4-OMe)(3) = (S)-2-amino-3-(4-methoxyphenyl)propanoic acid (source code F4OMe), COc1ccc(C[C@H](N[*:1])C(=O)[*:2])cc1; F4aao = (S)-2-amino-3-(4-(carboxymethoxy)phenyl)propanoic acid, O=C([C@H](Cc1ccc(OCC(=O)[*:3])cc1)N[*:1])[*:2]; Phe(4-OMe)″ = (S)-2-amino-3-(4-methoxyphenyl)propanoic acid (F4OMe), COc1ccc(C[C@H](N[*:1])C(=O)[*:2])cc1; Phe(4-OMe) = F4OMe = (S)-2-amino-3-(4-methoxyphenyl)propanoic acid, COc1ccc(C[C@H](N[*:1])C(=O)[*:2])cc1; E(NHdPEG1Me) = N5-(1,3-dimethoxypropan-2-yl)-L-glutamine, COCC(COC)NC(=O)CC[C@H](N[*:1])C(=O)[*:2]; Ndm = N4,N4-dimethyl-L-asparagine, CN(C)C(=O)C[C@H](N[*:1])C(=O)[*:2]; Trp(1-CH2CO) = O=C([C@H](Cc1cn(CC(=O)[*:3])c2ccccc12)N[*:1])[*:2]; Ala(1-CH2CO2H-4-piperidyl) = N[C@@H](CC1CCN(CC(=O)O)CC1)C(=O)O; Trp(5-Cl) = N[C@@H](Cc1c[nH]c2ccc(Cl)cc12)C(=O)O; Nle(6-morpholino) = N[C@@H](CCCCN1CCOCC1)C(=O)O; Phe(3-COOH) = N[C@@H](Cc1cccc(C(=O)O)c1)C(=O)O; NH(CH2CH2O)8Me = COCCOCCOCCOCCOCCOCCOCCOCCN*; NMePhe(3-Cl) = CN[C@@H](Cc1cccc(Cl)c1)C(=O)O; NMePhe(4-F) = CN[C@@H](Cc1ccc(F)cc1)C(=O)O; 3Pal(6-NH2) = Nc1ccc(C[C@H](N)C(=O)O)cn1; NMeY = CN[C@@H](Cc1ccc(O)cc1)C(=O)O; NMeR = CN[C@@H](CCCNC(=N)N)C(=O)O; NMeF = CN[C@@H](Cc1ccccc1)C(=O)O; 3Pal = N[C@@H](Cc1cccnc1)C(=O)O; 4Pal = N[C@@H](Cc1ccncc1)C(=O)O
# B1: 894_0392 (peptide)
# peptide: {CH2CO}-AV[NMePhe(3-Cl)]VWNY[F4aao]IIRRF[NMeY]C-NH2
# modifications: thioether N-15; also: linker PEG4c, place not given here
# B2: 894_0255 (peptide)
# peptide: {CH2CO}-AV[NMePhe(4-F)]V[Trp(5-Cl)]NY[Phe(4-OMe)]IIRRFYC-NH2
# modifications: thioether N-15; not fully specified (residue 14); also: linker PEG4c, place not given here
# B3: 894_0280 (peptide)
# peptide: {CH2CO}-AV[NMePhe(3-Cl)]VWNY[Phe(4-OMe)]IIRRFYC-NH2
# modifications: thioether N-15; not fully specified (residue 14); also: linker PEG4c
# B4: 894_3168 (peptide)
# peptide: {CH2CO}-AV[NMePhe(3-Cl)]V[Trp(1-CH2CO)]NY[F4aao]IIRRF[NMeY]C-NH2
# modifications: thioether N-15; also: linker G-de-de-de-ds-ds-KN3, attachment not given here
# B5: 849_0397 (peptide)
# peptide: {CH2CO}-AV[NMePhe(3-Cl)]VWNY[F4aao]II[E(PEG8Me)]RF[NMeY]C-NH2
# modifications: thioether N-15; also: linker PEG4c, place not given here
# B6: 894_0254 (peptide)
# peptide: {CH2CO}-AV[NMePhe(4-F)]V[Trp(5-Cl)]NYYIIRRFYC-NH2
# modifications: thioether N-15; not fully specified (residue 14); also: linker PEG4c, place not given here
# B7: 894_0250 (peptide)
# peptide: {CH2CO}-AV[NMeF]V[Trp(5-Cl)]NYYIIRRFYC-NH2
# modifications: thioether N-15; not fully specified (residue 14); also: linker PEG4c, place not given here
# B8: 894_3200 (peptide)
# peptide: AVFVWNYYIIKRYYC
# modifications: 3:MeF,5:MeW,14:MeY; linker G-ds-ds-ds-ds-ds-KN3; ClAc-1/C15 thioether ring; C-term NH2
# B9: 849_0404 (peptide)
# peptide: {CH2CO}-AV[NMePhe(3-Cl)]V[Trp(1-CH2CO)]NY[F4aao]II[E(PEG4Me)][Nle(6-morpholino)]F[NMeY]C-NH2
# modifications: thioether N-15; also: linker PEG4c, attachment site not given here
# B10: 894_0386 (peptide)
# peptide: {CH2CO}-AV[NMePhe(3-Cl)]V[Trp(1-CH2CO)]NY[F4aao]II[Ala(1-CH2CO2H-4-piperidyl)]RF[NMeY]C-NH2
# modifications: thioether N-15; also: linker PEG4c, place not given here
# B11: 894_0291 (peptide)
# peptide: {CH2CO}-AV[NMePhe(3-Cl)]VWNY[Phe(4-OMe)]IIRRYYC-NH2
# modifications: thioether N-15; not fully specified (residue 14); also: linker PEG4c
# B12: 849_0399 (peptide)
# peptide: {CH2CO}-AV[NMePhe(3-Cl)]VWNY[F4aao]II[E(NHdPEG1Me)]R[Phe(3-COOH)][NMeY]C-NH2
# modifications: thioether N-15; also: linker PEG4c, place not given here
# B13: 894_0289 (peptide)
# peptide: {CH2CO}-AV[NMeF]V[Trp(5-Cl)]NY[Phe(4-OMe)]IIRRYYC-NH2
# modifications: thioether N-15; not fully specified (residue 14); also: linker PEG4c
# B14: 894_3167 (peptide)
# peptide: {CH2CO}-AV[NMePhe(3-Cl)]V[Trp(1-CH2CO)]NY[Phe(4-OMe)(3)]IERRF[NMeY]C-NH2
# modifications: thioether N-15; also: linker G-de-de-de-ds-ds-KN3, attachment not given here
# B15: 894_0281 (peptide)
# peptide: {CH2CO}-AV[NMePhe(3-Cl)]VWNY[Phe(4-OMe)]IIKRFYC-NH2
# modifications: thioether N-15; not fully specified (residue 14); also: linker PEG4c
# B16: 894_0317 (peptide)
# peptide: {CH2CO}-AV[NMePhe(3-Cl)]VWNY[Phe(4-OMe)″]IIRR[4Pal][NMeY]C-NH2
# modifications: thioether N-15; also: linker PEG4c
# B17: 894_0390 (peptide)
# peptide: {CH2CO}-AV[NMePhe(3-Cl)]V[Trp(1-CH2CO)]NY[F4aao]II[Nle(6-morpholino)][Nle(6-morpholino)]F[NMeY]C-NH2
# modifications: thioether N-15; also: linker PEG4c, place not given here
# B18: 894_0251 (peptide)
# peptide: {CH2CO}-AV[NMeF]V[Trp(5-Cl)]NY[Phe(4-OMe)]IIRRFYC-NH2
# modifications: thioether N-15; not fully specified (residue 14); also: linker PEG4c, place not given here
# B19: 894_0391 (peptide)
# peptide: {CH2CO}-AV[NMePhe(3-Cl)]V[Trp(1-CH2CO)]NY[Phe(4-OMe)″]IIRRF[NMeY]C-NH2
# modifications: thioether N-15; also: linker PEG4c, place not given here
# B20: 894_0257 (peptide)
# peptide: {CH2CO}-AV[NMePhe(4-F)]V[Trp(5-Cl)]NYYII[NMeR][dR]FYC-NH2
# modifications: thioether N-15; not fully specified (residue 14); also: linker PEG4c, place not given here
# B21: 894_0355 (peptide)
# peptide: {CH2CO}-AV[NMePhe(3-Cl)]V[Trp(1-CH2CO)]N[3Pal(6-NH2)][F4aao]IIRE(NH(CH2CH2O)8Me)[Phe(3-COOH)][NMeY]C-NH2
# modifications: thioether N-15; also: linker PEG4c
# B22: 894_0354 (peptide)
# peptide: {CH2CO}-AV[NMePhe(3-Cl)]V[Trp(1-CH2CO)]N[3Pal(6-NH2)][3Pal]IIRE(NH(CH2CH2O)8Me)[4Pal][NMeY]C-NH2
# modifications: thioether N-15; also: linker PEG4c
# B23: 894_3152 (peptide)
# peptide: {CH2CO}-AV[NMeF]VW[Ndm]YYIIRRY[NMeY]C-NH2
# modifications: thioether N-15
# SMILES: CC[C@H](C)[C@@H]1NC(=O)[C@H](Cc2ccc(O)cc2)NC(=O)[C@H](Cc2ccc(O)cc2)NC(=O)[C@H](CC(=O)N(C)C)NC(=O)[C@H](Cc2c[nH]c3ccccc23)NC(=O)[C@H](C(C)C)NC(=O)[C@H](Cc2ccccc2)N(C)C(=O)[C@H](C(C)C)NC(=O)[C@H](C)NC(=O)CSC[C@@H](C(N)=O)NC(=O)[C@H](Cc2ccc(O)cc2)N(C)C(=O)[C@H](Cc2ccc(O)cc2)NC(=O)[C@H](CCCNC(=N)N)NC(=O)[C@H](CCCNC(=N)N)NC(=O)[C@H]([C@@H](C)CC)NC1=O
# B24: 894_0455 (peptide)
# peptide: {CH2CO}-AV[NMePhe(3-Cl)]VWN[3Pal(6-NH2)][F4aao]II[E(PEG8Me)]R[4Pal][NMeY]C-NH2
# modifications: thioether N-15; also: linker PEG4c, attachment not given here
# B25: 894_0353 (peptide)
# peptide: {CH2CO}-AV[NMePhe(3-Cl)]V[Trp(1-CH2CO)]N[3Pal(6-NH2)][3Pal]IIRE(NH(CH2CH2O)8Me)[Phe(3-COOH)][NMeY]C-NH2
# modifications: thioether N-15; also: linker PEG4c
# B26: 894_0356 (peptide)
# peptide: {CH2CO}-AV[NMePhe(3-Cl)]V[Trp(1-CH2CO)]N[3Pal(6-NH2)][F4aao]IIRE(NH(CH2CH2O)8Me)[4Pal][NMeY]C-NH2
# modifications: thioether N-15; also: linker PEG4c
# Target: T1, human transferrin receptor (hTfR) (human, UniProt P02786 89-760)
# T1 construct: used as 0.5 uM hTfR dimer solution, immobilised on an NTA sensor chip (Ni capture plus EDC/NHS coupling); also called human TfR; TfR1
# T1 sequence (P02786 89-760 limits assumed): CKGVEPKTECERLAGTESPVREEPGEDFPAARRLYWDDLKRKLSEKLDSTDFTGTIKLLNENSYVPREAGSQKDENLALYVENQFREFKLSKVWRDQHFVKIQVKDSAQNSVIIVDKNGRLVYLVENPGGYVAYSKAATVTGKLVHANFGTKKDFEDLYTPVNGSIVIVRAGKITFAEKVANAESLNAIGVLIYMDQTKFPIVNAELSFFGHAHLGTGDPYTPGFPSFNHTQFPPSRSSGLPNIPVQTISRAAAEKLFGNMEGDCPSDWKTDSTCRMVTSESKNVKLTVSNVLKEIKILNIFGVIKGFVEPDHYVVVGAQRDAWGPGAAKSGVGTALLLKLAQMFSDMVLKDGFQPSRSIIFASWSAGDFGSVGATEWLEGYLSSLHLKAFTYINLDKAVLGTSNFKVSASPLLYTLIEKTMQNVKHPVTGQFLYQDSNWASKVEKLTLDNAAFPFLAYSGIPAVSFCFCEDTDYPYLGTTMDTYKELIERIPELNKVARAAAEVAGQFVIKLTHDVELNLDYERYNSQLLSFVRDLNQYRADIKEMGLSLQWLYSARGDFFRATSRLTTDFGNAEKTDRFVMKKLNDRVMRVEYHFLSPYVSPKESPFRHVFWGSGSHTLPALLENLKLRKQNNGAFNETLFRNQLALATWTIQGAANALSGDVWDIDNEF
# Test: SPR; A = KD <1 nM
# Description: (§1) NTA sensor chip (Global Life Sciences Technologies Japan K.K.) was inserted into BiacoreT200 (Global Life Sciences Technologies Japan K.K.), then the priming operation was performed three times by using running buffer containing: 10 mM HEPES pH 8.0 (Nacalai Tesque, Inc.), 150 mM NaCl (Nacalai Tesque, Inc.), 0.05% Tween 20 (Nacalai Tesque, Inc.), 0.1% BSA (SIGMA-ALDRICH) and 1.0% DMSO (FUJIFILM Wako Pure Chemical Corporation), and equilibrated at a flow rate of 30 μL/min. 350 mM EDTA solution was reacted at a flow rate of 10 μL/min for 60 seconds, 0.5 mM […] solution (Kishida Chemical Co., Ltd.) was reacted at a flow rate of 10 μL/min for 60 seconds, and then the NTA sensor chip was washed with 3 mM EDTA solution (Nacalai Tesque, Inc.) at a flow rate of 10 μL/min for 60 seconds. After mixing 50 μL each of 60 mM EDC solution (Global Life Science Technologies Japan K.K.) and 650 mM NHS solution (Global Life Science Technologies Japan K.K.), the reaction was carried out at a flow rate of 10 μL/min for 420 seconds. 150 μL of 0.5 μM hTfR dimer solution was prepared by dilution with running buffer and reacted at a flow rate of 10 μL/min for 300 seconds to immobilize hTfR on the NTA sensor chip. For the human transferrin receptor (hTfR), recombinant hTfR described in Example 2 of WO2018/124121 was used. After immobilization, capping was performed by reacting with 1.0 M ethanolamine solution (Global Life Sciences Technologies Japan K.K.) at a flow rate of 10 μL/min for 420 seconds. Peptide lysate prepared in DMSO solution to 10 mM was diluted with running buffer to be a final concentration of 10 μM peptide lysate, then peptide solutions of 100 nM, 50 nM, 25 nM, 10 nM, and 5 nM were prepared. Using the above samples, the kinetics of the peptide against hTfR was obtained by SPR measurement.
# (§2) The kinetic evaluation model was single-cycle kinetics, and curve fitting was performed using Biacore T200 Evaluation Software Version 3.0 (Global Life Science Technologies Japan K.K.). The binding of the peptide to hTfR was evaluated by performing curve fitting on the obtained sensorgram by least squares method and obtaining the KD value.
KD [nM],binding result,Binder
< 1,–,B1
< 1,–,B2
< 1,–,B3
< 1,–,B4
< 1,–,B5
< 1,–,B6
< 1,–,B7
–,binds,B8
< 1,–,B9
–,binds,B10
< 1,–,B11
< 1,–,B12
< 1,–,B13
< 1,–,B14
< 1,–,B15
< 1,–,B16
–,binds,B17
< 1,–,B18
< 1,–,B19

# Target: T1, human transferrin receptor (hTfR)
# Test: SPR; C = KD 100 nM-1 uM
# Description: as §1, §2
row,KD [nM],Binder
1,100 to 1000,B20
2,100 to 1000,B21
3,100 to 1000,B22
4,100 to 1000,B23
5,100 to 1000,B24
6,100 to 1000,B25
7,100 to 1000,B26
